Results from article PMC6437151.

Key:
[1] = molecular target: FBXW2 (UniProt Q9UKT8); test: co-transfection, HA IP, immunoblot; conditions: reference: wild type; sites S552
[2] = molecular target: FBXW2 (UniProt Q9UKT8); test: IP with FBXW2 antibody, immunoblot; conditions: reference: wild type; sites S552

binding against the reference [1]: lost
binding against the reference [2]: lost
Substance: β-catenin (from UniProt P35222) S552A
